Reference: patent US20200165312A1, “COSMETIC COMPOSITION FOR IMPROVING SKIN CONDITIONS COMPRISING FUSION PROTEIN INCLUDING SKIN PENETRATION ENHANCING PEPTIDE” (LG HOUSEHOLD & HEALTH CARE LTD., priority 2017, published 2020)

Key:
[1] = Skin penetrability of growth factor fusion proteins (Franz glass cell, ELISA); type: in vitro ADME, porcine; conditions: for Penetrated amount (%): 2 μg, 16 hours; for skin penetrability compared with the unfused protein: summary of Tables 7, 12, 16, 20, 24
Method: (§1) Specifically, porcine skin (thickness: 0.7 mm, Medikinetics) was placed between upper and lower ends of Franz glass cell (standard diameter: 9 mm, Receiver 5 mL, Permegear), and TBS (50 mM Tris pH 7.5, 150 mM NaCl) including 1% BSA and 0.01% Tween 20 was prepared. Then, 500 μL of the TBS was applied to the upper end of the glass cell (Donor chamber), and 5 mL of the TBS was applied to the lower end of the glass cell, (Receiver chamber). Subsequently, 2 μg of PDGFa or T-PDGFa was applied to the upper end of the glass cell, followed by reaction for 16 hours. Then, a concentration of PDGFa or T-PDGFa was quantitatively analyzed using the ELISA kit (R&D Systems), and a relative amount of T-PDGFa to PDGFa was calculated as a penetrated amount (Table 7).
Specifically, porcine skin (thickness: 0.7 mm, Medikinetics) was placed between upper and lower ends of Franz glass cell (standard diameter: 9 mm, Receiver 5 mL, Permegear), and TBS (50 mM Tris pH 7.5, 150 mM NaCl) including 1% BSA and 0.01% Tween 20 was prepared. Then, 500 μL of the TBS was applied to the upper end of the glass cell (Donor chamber), and 5 mL of the TBS was applied to the lower end of the glass cell, (Receiver chamber).
as §1, with “IGF-1” for “PDGFa”, “T-IGF-1” for “T-PDGFa”, “16).” for “7).”
as §1, with “KGF” for “PDGFa”, “T-KGF” for “T-PDGFa”, “20).” for “7).”
as §1, with “Tβ4” for “PDGFa”, “T-Tβ4” for “T-PDGFa”, “24).” for “7).”

[2] = system: dermal papilla cells; assay: Hair follicle stem cell proliferation: dermal papilla cells, Cell Counter Kit-8; type: cell-based; conditions: for Proliferation (%): one day, control = 100; for cell proliferation effect compared with the unfused protein: dermal papilla cells
Method: (§2) Specifically, dermal papilla cells were inoculated onto a 96-well plate and cultured for 24 hours to obtain cultures at a density of 6,000 cells per well. The cultures were washed with PBS and cultured in a serum-free DMEM medium for one day. The cells were washed with PBS again and cultured in a serum-free DMEM medium supplemented with 1 ng/mL T-PDGFa or PDGFa for one day. The cultures were obtained therefrom and a difference between proliferated amounts of cells was quantitively analyzed using the Cell Counter Kit-8 (Dojindo). Here, dermal papilla cells cultured in a serum-free DMEM medium without T-PDGFa or PDGFa were used as a control (Table 6).
Specifically, dermal papilla cells were inoculated onto a 96-well plate and cultured for 24 hours to obtain cultures at a density of 6,000 cells per well. The cultures were washed with PBS and cultured in a serum-free DMEM medium for one day. […] The cultures were obtained therefrom and a difference between proliferated amounts of cells was quantitively analyzed using the Cell Counter Kit-8 (Dojindo).
as §2, with “T-IGF-1” for “T-PDGFa”, “IGF-1” for “PDGFa”, “15).” for “6).”
as §2, with “10” for “1”, “T-KGF” for “T-PDGFa”, “KGF” for “PDGFa”, “19).” for “6).”
as §2, with “10” for “1”, “T-Tβ4” for “T-PDGFa”, “Tβ4” for “PDGFa”, “23).” for “6).”

Row | Molecule | Penetrated amount (%) ([1]; relative to KGF) | Proliferation (%) ([2]; 10 ng/mL T-KGF or KGF) | Penetrated amount (%) ([1]; relative to VEGF) | skin penetrability compared with the unfused protein [1] | Proliferation (%) ([2]; 1 ng/mL T-VEGF or VEGF) | cell proliferation effect compared with the unfused protein [2]
1 | KGF: keratinocyte growth factor having an amino acid sequence of SEQ ID NO: 44 (protein, Human KGF) CNDMTPEQMATNVNCSSPERHTRSYDYMEGGDIRVRRLFCRTQWYLRIDKRGKVKGTQEMKNNYNIMEIRTVAVGIVAIKGVESEFYLAMNKEGKLYAKKECNEDCNFKELILENHYNTYASAKWTHNGGEMFVALNQKGIPVRGKKTKKEQKTAHFLPMAIT | 100 ± 18% | 360 ± 35% |  |  |  | 
2 | T-VEGF: SEQ ID NO: 1 peptide C-terminal linked to N-terminal of VEGF via GG linker (protein, Synthetic Fusion protein of T-VEGF) NGSLNTHLAPILGGAPMAEGGGQNHHEVVKFMDVYQRSYCHPIETLVDIFQEYPDEIEYIFKPSCVPLMRCGGCCNDEGLECVPTEESNITMQIMRIKPHQGQHIGEMSFLQHNKCECRPKKDRARQENPCGPCSERRKHLFVQDPQTCKCSCKNTDSRCKARQLELNERTCRCDKPRR |  |  | 295 ± 21% | about three times higher | 310 ± 20% | same level
3 | T-KGF: SEQ ID NO: 1 peptide C-terminal linked to N-terminal of KGF via GG linker (protein, Synthetic Fusion protein of T-KGF) NGSLNTHLAPILGGCNDMTPEQMATNVNCSSPERHTRSYDYMEGGDIRVRRLFCRTQWYLRIDKRGKVKGTQEMKNNYNIMEIRTVAVGIVAIKGVESEFYLAMNKEGKLYAKKECNEDCNFKELILENHYNTYASAKWTHNGGEMFVALNQKGIPVRGKKTKKEQKTAHFLPMAIT | 310 ± 12% | 270 ± 15% |  | about three times higher |  | same level
